# Test results reported in paper PMC8816947.
# Experiments:
# [1] = target: BG505.MD39 native-like trimer (stabilized HIV Env gp140 ectodomain), sequence optimized, recombinant (HIV-1 (isolate BG505)); assay: native gel or EMSA
# [2] = target: BG505.MD39 native-like trimer (stabilized HIV Env gp140 ectodomain), sequence optimized, recombinant (HIV-1 (isolate BG505)); assay: SEC
# [3] = target: BG505.MD39 native-like trimer (stabilized HIV Env gp140 ectodomain), sequence optimized, recombinant (HIV-1 (isolate BG505)); assay: SEC-MALS
# [4] = target: BG505.MD39 native-like trimer (stabilized HIV Env gp140 ectodomain), sequence optimized, recombinant (HIV-1 (isolate BG505)); assay: negative-stain EM
# [5] = target: in vivo produced BG505.MD39 (DNA-encoded, pMD39_opt, in mouse muscle) (HIV-1 (isolate BG505)); assay: native gel or EMSA
Substance,stoichiometry N [1],stoichiometry N [2],stoichiometry N [3],stoichiometry N [4],stoichiometry N [5]
"BG505.MD39 native-like trimer (stabilized HIV Env gp140 ectodomain), sequence optimized, recombinant (complex)",3,3,3,3,–
"in vivo produced BG505.MD39 (DNA-encoded, pMD39_opt, in mouse muscle) (complex)",–,–,–,–,3
